Source: US20240392024A1 (SHANGHAI CELGEN BIO PHARMACEUTICAL, published 2024)

Biological target: T1, human TNFR2 on the cell membrane (human, UniProt P20333 23-461)
T1 construct: whole, on cells; One molecule for all cell formats; also called TNFR2-CHO cells; CHO-TNFR2
T1 sequence (looked up): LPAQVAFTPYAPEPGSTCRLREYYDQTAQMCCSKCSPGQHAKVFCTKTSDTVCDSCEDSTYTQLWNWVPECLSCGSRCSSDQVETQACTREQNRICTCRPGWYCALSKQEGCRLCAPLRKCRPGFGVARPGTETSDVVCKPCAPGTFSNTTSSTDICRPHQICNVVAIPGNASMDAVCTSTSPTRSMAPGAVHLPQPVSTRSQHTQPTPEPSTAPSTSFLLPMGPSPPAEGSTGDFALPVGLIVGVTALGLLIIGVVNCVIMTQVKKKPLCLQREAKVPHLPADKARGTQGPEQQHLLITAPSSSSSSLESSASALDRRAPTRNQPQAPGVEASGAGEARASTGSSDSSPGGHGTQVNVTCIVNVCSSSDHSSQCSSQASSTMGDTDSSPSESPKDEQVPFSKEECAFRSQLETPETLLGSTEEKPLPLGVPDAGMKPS
Assay: competition flow cytometry, TNFR2 positive cells, TNFα fusion protein at fixed concentration
Protocol: Purified anti-human TNFR2 human-mouse monoclonal antibodies were co-cultured with TNFR2 positive cells and stained. The antibody binding intensity was analyzed by flow cytometry. The specific steps are as follows: cells were counted, centrifugated, resuspended, then added to a 96-deep well plate, and the supernatant was discarded. Gradient diluted anti-TNFR2 antibodies and TNFα fusion protein of fixed concentration were added. After incubation and wash, the secondary antibody PE-streptavidin (Biogen, 405203) was added for incubation, and the samples were detected using Beckman CytoFLEX.

B1: human-mouse chimeric TNFR2 monoclonal antibody 27F6-hFc (antibody, V domains shown)
VH: EVQLQQSGTVLARPGASVKMSCKTSGYTFTSYWMHWVKQRPGQGLEWIGTIYPGNSDTSYNQKFKGKAKLTAVTSASTAYMELNSLTNEDSAVFYCTRENLLLRSYFFDYWGQGTTLTVSS
VL: DIVMTQSPASLAVSLGQRATISCKASQSVDYDGDSYLNWYQQKPGQPPKLLIYAASNLPSGIPARFSGSGSGTDFTLNIHPVEEEDAATYYCQQSNEDPRTFGGGTKLEIK
notes: Mouse V regions of clone 27F6 with human constant regions
IC50: 0.179 µg/mL
